Test results published in the supplement of paper PMC12764529.
± gives the half width of the 95% confidence interval.

Assay: folding stability dG unfold from trypsin proteolysis; higher = more stable
Outline: (§1)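 Only designs with AlphaFold2 dimer inter-PAE above 15 were retained; each was a mini-protein under 80 residues with no cysteine, in a PA-tagged cDNA display construct. After digestion with trypsin and chymotrypsin and sequencing, K50 was inferred by Bayesian fitting of counts, and unfolding free energy was derived per protease or combined against a sequence-predicted unfolded-state K50 and a shared folded-state K50.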

Sequence | folding stability dG unfold [kcal/mol]
SAGGMKVTEEPDATIVEVPLPDRKLTLTITRDGPGVTVTVTEDGEVLKTIPTDGPAEEAIAAAIAALSAGGS [r8_276_JUSTAS] | 1.04 ± 0.016
SAGGEKTTLTLTLTLTLPPVTTVTYDPETGELRVETRTTTLTLTITVTADSPEEAERALRELLKKLGLSAGG [r13_35_TrROS_Hall] | 4.4 ± 0.17
SAGMKPGDMRPVEIPFEIYQYDDGGPKPVAPMTIKIMVNPDEGYVMLEIENPGNGEPVIIFTLPADDISAGG [r19_413_TrROS] | 1.65 ± 0.055
SAGGSAMTIYIKNKDGYIIKIEITKIEEIGPNYIKIKMKMEIINKNGEKKEIELELIFKVKNPEELSAGGSA [r15_1035_TrROS_Hall] | 2.54 ± 0.33
SAGGSAGGSKRKIKVDDVEPPPNGFMRVTLEVDDGKPLVPINIPPGQTPSEVKDQVKDLVEELSAGGSAGGS [r12_798_TrROS] | 3.86 ± 0.31
SASASQTTIEYTVPVPAGTSPDEPLTLTVTLPDKEIPIEVGTLENLPPDATVTITLDTTEPTFTVTLTPSAG [r14_554_JUSTAS] | 1.52 ± 0.051
SAGGIEDIANEFGIEDVEIEEINPEYNEVTVTFRFRGPNGNPFTWTYTIEVPPPPPPEPKMDPEDNNNSAGG [r13_608_TrROS] | 1.06 ± 0.12
SMKPGEVKELTLKLTIPVKPGEITVTLVLKLEDGRYVVVESRATVKEDGTIEIEVKIRVYDPKTNEWKELSA [r9_349_TrROS_Hall] | 2.37 ± 0.19
SAGGSAGGSAGGMLVRIPRGDKGFVLEIETDGVRTVEEFDGTEEEIREYAEKNGFEILESAGGSAGGSAGGS [r10_506_JUSTAS] | 0.771 ± 0.017
SAGGSAGGSPNDMKEVDFPIKFPKEKFKVKIWRHPDDPNRYYIRFPSNGAIFWFDPNGDIEPLSAGGSAGGS [r12_580_TrROS] | 1.01 ± 0.056
MSEKTFVVEVKVESPEEAEELIEKLKEKLSGEKYEVKIEKVEVSPDGTVKVHITFKPGVPEEFIKKALEEES [r1_485_TrMRF] | 2.28 ± 0.13

Assay: folding stability dG unfold (combined trypsin and chymotrypsin); higher = more stable
Outline: as §1

Sequence | folding stability dG unfold [kcal/mol]
SAGGEIKIKKSKDGKTLYIEIKIKAGEKVKLKLTITLPNGKKAEITSVEIIEKNGELYIKVEIKIKDSAGGS [r16_499_TrROS_Hall] | 4.42 ± 0.42
SAGGKEWYIKVSIEHRNPNNGEKRELSITIPVEGMSAEEALDIARELARHLPPENVKIEVDIVPLDDSAGGS [r16_774_TrROS] | 1.86 ± 0.17
SAGGSAGGSAGMKEGEKPKVKIEIDVLIEVDGKLYRVRAEAEINEDGEITIKVEIEELPDSAGGSAGGSAGG [r11_551_TrROS_Hall] | 3.3 ± 0.12
SAEEELRKALENMSDEELEALLRAAAPPPKTVTIRLSEEELEKLAQELADEYNVTVTVEVDGKTLTLTLSAG [r14_7_TrROS_Hall] | 1.76 ± 0.049
SAGGSAGGSIEIPGGYTIPSSLSEEEAKEAAKKLFLEKNPELGVKEVEVKVETKNGKKTITVVKSAGGSAGG [r6_558_JUSTAS] | 0.714 ± 0.28
SAGGSAGGSKPVLKITVTNEKGEKQTISLDELQAETGLSAEEIAARLAALLPPGAKITIEPVPSAGGSAGGS [r12_399_TrROS_Hall] | 1.98 ± 0.048
SKDPNNEWVVIKFEVTIPVPPGQKPITADEIASQVRQIMQNHGMEITSVEVEYRGNQVTVSVEIVIPKKASA [r9_1134_TrROS] | 3.22 ± 0.18
SEKVKKELNEAGYPVKDIKFVPEKGYAYITVEVYVPEVDKKVEKEIVIPFPDSATPEQLTEAARKALEADSA [r9_184_TrMRF] | 3.09 ± 0.092
SAGGSAGGSAGKKITIPNLDVMRNPDDGMAFIQFGGQMIMIPPNVKIEQDPNGWMEIELPSAGGSAGGSAGG [r17_34_TrROS] | 0.144 ± 0.12
SAGGSAGGSAGMPVKVVLVKWKGGGLEPEGGEEREVEIGPEELEKLVKEAEKEGYEVYPASAGGSAGGSAGG [r17_18_TrMRF] | 0.0684 ± 0.36
SKKVTIMIMIRRRDPEDGKYRPIPPEFILEMVRRARKKGKKVKITFMNPDNPWAKRLAKRAKEEGIKIEWSA [r9_468_TrROS] | 2.1 ± 0.11
SAGGSAGGSAGGPANLNDEPVLLIPVSSELLKLIPAEKLVELAAKLASPNVKRIYVLAPESAGGSAGGSAGG [r7_487_TrMRF] | 0.424 ± 0.088
SAGGEKTYMVRIDIEYRTPGKPREIDLMVPIKSPEQAREQLDKIADFLAKEHPDNWRIKVEIYPMEDSAGGS [r16_475_TrROS] | 2.16 ± 0.29
SAGGSAGGSSLTLRLRLRLRVRVLDEETGELSEFEVEVELELRFEPAPPPPPPPLVLRDGKLVSAGGSAGGS [r12_140_TrROS_Hall] | 4.34 ± 0.34
SAGGMVTLTYTDLVEEDPEVKAAKARELAEELREKGYTVTDATFDPEAGTLTITVSADDATLEEIAASAGGS [r8_344_TrMRF] | 1.27 ± 0.099
SAGPLTVTVEGDTLTVTVPLTDVPADATVRVTVTVGDKTEEYTVPPSESITVTVPSSAVEVTVERLPPASAG [r5_867_JUSTAS] | 2.36 ± 0.12
SMQINVERNPENGTVIIHIPMEDMPPENIREILKDLPPNNKRVTIHMHDPPYMRWLKELAKEKGFPIKITSA [r9_919_TrROS] | 0.623 ± 0.15
SAGGSKTVELEIEIDGKLIKIRVEENENGELTVRIEIYDKNGKKVKEIEIKVKSLEEALKALEKLLSAGGSA [r2_82_TrROS_Hall] | 3.22 ± 0.12
SAGGVLPSDPVTVTVTIPVPAANAETDGRLPPQPQTINLEIGGPSEEAIRALLEALFPPGTEYEILLSAGGS [r16_282_JUSTAS] | 1.32 ± 0.06
SAGGSAMKIEEIEKVELKKNENGELTAKIIIKDKKTNKYIEIEITVKPGMTLEEIKKLAEELLKKLSAGGSA [r15_181_TrROS_Hall] | 2.73 ± 0.14
SAGGMKVDPKTNITTIEFPSSNLPELKEAIEKTGEKPVVVILKDPNSDREVRITLTKEEALKYLEKKSAGGS [r16_797_JUSTAS] | 0.565 ± 0.18
